The subject of one series is guinea pig trachea. Kind of series: Tracheal mucus velocity (TMV) in the guinea-pig. Format: in vivo. Conditions: 5 ug tracheal instillation; 1.5 to 2.5 hours following administration; FIG. 16(c). The method, then:
The aim of this study was to investigate the effect of the Kunitz family serine protease inhibitor Bikunin on guinea-pig tracheal mucus velocity 1.5 hours post treatment. This agent was delivered into the cephalad trachea by topical instillation. TMV was monitored 1.5 hours later for 60 mins. The procedure used in this Example is described in Newton et al. in “Cila, Mucus and Mucociliary Interactions,” Ed., Baum, G. L. et al., Marcel Dekker, New York, 1998; Newton et al., Ped. Pulm. S17, Abs. 364, 1998). […]
TMV was monitored using a lead collimated miniature Beta particle detector probe arranged to detect the radioactivity emitted from an injected aliquot of ^32P-labelled Saccharomyces cerevisiae as it was transported on the tracheal mucociliary layer of an anaesthetized guinea pig (Newton and Hall 1998) FIG. 16(a) illustrates the arrangement of the syringe and beta probe. FIG. 16(b) illustrates the counts detected by the probe as the ^32P-labelled S. cerevisiae is transported along the tracheal mucociliary layer. […]
The aim of this comparative study was to investigate the effect of hypertonic saline (14.4%×5 min) on guinea-pig tracheal mucus velocity. […] TMV was monitored immediately and every 15 minutes for 30 minutes. […]

The target in a further series is T1, human plasma kallikrein (Homo sapiens, UniProt P03952).
T1 construct: purchased Sigma (St. Louis, Mo.)
Kind of series: Anti-protease activity before and after nebulization. In kind it is biochemical. The method, then:
The aim of this study was to assess the anti-protease activity of Bikunin (1-170) described in Example 17 following nebulization. All studies were performed with Bikunin formulated in phosphate buffered saline, pH 7.4 (137 mM NaCl, 3 mM KCl, 3 mM KH2PO4, 8 mM Na2HPO4, 0.02 g/L Tween 80).
Raindrop® Medication Nebulizer: Bikunin was aerosolized at concentrations of 1 and 3 mg/mL. The nebulizer cup was filled with 2.5 mL of Bikunin solution. Aerosolisation was performed at 7.35 L/min or 35 psi.
Collison Nebulizer: Bikunin was aerosolised at a concentration of 4.7 mg/mL. The nebulizer cup was filled with 2.5 mL of Bikunin solution. Aerosolisation was performed at 35 psi.
Aerosolised Bikunin was collected using a twin impinger (6.4 um mean aerodynamic particle cut-off size at 60 L/min through the system). The impinger works on the principle of liquid impingement and divided the aerosol into a non-respirable fraction (>6.4 um collected in Stage 1) and a respirable fraction (<6.4 um collected in Stage 2).
Bikunin activity was measured in vitro by its inhibition of human plasma kallikrein.

Entries after “also recorded” stand apart in the source; their conditions may differ. Read-outs that look alike come from different tables or passages of the source.

T1 sequence (P03952 391-638 limits assumed): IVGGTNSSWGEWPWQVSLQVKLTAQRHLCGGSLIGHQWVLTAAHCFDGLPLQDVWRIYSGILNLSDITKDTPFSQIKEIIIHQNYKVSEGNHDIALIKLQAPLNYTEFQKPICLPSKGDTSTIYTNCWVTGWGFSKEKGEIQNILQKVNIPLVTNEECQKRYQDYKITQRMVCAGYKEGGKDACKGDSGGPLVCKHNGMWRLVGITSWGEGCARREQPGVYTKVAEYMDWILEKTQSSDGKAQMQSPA
T1 sequence (P03952 20-390 partner limits assumed): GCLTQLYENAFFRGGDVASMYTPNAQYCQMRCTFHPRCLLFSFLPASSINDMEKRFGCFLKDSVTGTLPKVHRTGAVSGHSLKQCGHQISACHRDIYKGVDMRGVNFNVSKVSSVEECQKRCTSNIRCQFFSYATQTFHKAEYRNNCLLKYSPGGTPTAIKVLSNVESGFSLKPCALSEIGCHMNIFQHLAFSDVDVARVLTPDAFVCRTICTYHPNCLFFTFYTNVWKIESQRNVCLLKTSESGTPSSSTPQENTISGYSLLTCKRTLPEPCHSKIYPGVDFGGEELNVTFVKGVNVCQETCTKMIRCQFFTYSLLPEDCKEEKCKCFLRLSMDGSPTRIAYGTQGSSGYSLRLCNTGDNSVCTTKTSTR

B1: CHO Bikunin (1-170): Glycosylated placental bikunin (1-170), SEQ ID NO: 52, expressed in Chinese hamster ovary cells (Example 17) (protein, listed as Homo sapiens)
chain: ADRERSIHDFCLVSKVVGRCRASMPRWWYNVTDGSCQLFVYGGCDGNSNNYLTKEECLKKCATVTENATGDLATSRNAADSSVPSAPRRQDSEDHSSDMFNYEEYCTANAVTGPCRASFPRWYFDVERNSCNNFIYGGCRGNKNSYRSEEACMLRCFRQQENPPLPLGSK
modifications: glycosylated, CHO-expressed
Regarding B1, in the series with guinea pig trachea, the TMV entry is “increased TMV; also recorded: sustained increase in TMV”. The Ki (as a rule, the equilibrium dissociation constant of an inhibitor or competing ligand from its target) amounted to 0.45 nM with human plasma kallikrein (Collison nebulizer, 4.7 mg/mL, read-out: Activity (Ki), post-nebulization); 0.27 nM with human plasma kallikrein (Collison nebulizer, 4.7 mg/mL, read-out: Activity (Ki), pre-nebulization); 0.76 nM in the series with human plasma kallikrein (Raindrop nebulizer, 1 mg/mL, read-out: Activity (Ki), post-nebulization); 0.47 nM in the series with human plasma kallikrein (Raindrop nebulizer, 1 mg/mL, read-out: Activity (Ki), pre-nebulization); 0.62 nM in the series with human plasma kallikrein (Raindrop nebulizer, 3 mg/mL, read-out: Activity (Ki), post-nebulization); 0.52 nM in the series with human plasma kallikrein (Raindrop nebulizer, 3 mg/mL, read-out: Activity (Ki), pre-nebulization). Further, the stability to aerosolization entry with human plasma kallikrein (Raindrop and Collison nebulizers) was “stable to aerosolization and retained its anti-protease activity”.

For the origin of these results see patent US20070086956A1, “Method for accelerating the rate of mucociliary clearance” (BAYER AKTIENGESELLSCHAFT, priority 1998, published 2007).
